T1: medium-affinity receptor IL-2Rβ/γ on human cells (Mo7e cell line; human CD8+T and NK cells) (human, UniProt P14784 27-551; P31785 23-369)
T1 sequence (looked up) 1: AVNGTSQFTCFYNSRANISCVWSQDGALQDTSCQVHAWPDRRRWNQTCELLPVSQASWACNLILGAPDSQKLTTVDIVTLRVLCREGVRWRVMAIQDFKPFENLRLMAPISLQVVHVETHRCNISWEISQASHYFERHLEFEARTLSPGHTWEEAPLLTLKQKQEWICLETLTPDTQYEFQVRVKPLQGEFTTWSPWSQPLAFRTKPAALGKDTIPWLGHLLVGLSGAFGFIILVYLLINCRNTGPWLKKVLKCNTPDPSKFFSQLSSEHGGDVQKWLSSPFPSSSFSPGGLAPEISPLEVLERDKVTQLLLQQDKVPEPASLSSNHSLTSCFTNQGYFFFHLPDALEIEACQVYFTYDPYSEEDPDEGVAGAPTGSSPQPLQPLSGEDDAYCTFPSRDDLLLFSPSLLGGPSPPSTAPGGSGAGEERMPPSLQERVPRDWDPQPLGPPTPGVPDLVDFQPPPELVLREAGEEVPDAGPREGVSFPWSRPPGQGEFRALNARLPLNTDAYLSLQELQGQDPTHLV
T1 sequence (looked up) 2: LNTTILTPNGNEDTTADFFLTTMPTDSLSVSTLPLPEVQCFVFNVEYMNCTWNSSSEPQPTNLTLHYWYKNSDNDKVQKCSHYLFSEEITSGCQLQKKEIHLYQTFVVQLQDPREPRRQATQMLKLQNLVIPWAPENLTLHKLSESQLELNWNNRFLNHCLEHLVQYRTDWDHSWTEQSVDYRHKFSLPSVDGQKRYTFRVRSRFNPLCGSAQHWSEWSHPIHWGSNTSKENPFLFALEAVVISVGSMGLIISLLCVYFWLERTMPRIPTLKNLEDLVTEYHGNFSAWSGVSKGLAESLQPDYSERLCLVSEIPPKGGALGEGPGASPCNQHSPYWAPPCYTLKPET

T2: IL-2 receptor IL-2Rα/β/γ on human peripheral blood Treg cells (human, UniProt P01589 22-272; P14784 27-551; P31785 23-369)
T2 sequence (looked up) 1: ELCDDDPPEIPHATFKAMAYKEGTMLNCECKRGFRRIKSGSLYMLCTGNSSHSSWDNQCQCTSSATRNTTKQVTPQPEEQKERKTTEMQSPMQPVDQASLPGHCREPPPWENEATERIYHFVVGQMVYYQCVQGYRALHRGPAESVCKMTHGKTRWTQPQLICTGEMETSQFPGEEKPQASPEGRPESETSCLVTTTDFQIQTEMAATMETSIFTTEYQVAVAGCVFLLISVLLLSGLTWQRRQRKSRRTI
T2 sequence (looked up) 2: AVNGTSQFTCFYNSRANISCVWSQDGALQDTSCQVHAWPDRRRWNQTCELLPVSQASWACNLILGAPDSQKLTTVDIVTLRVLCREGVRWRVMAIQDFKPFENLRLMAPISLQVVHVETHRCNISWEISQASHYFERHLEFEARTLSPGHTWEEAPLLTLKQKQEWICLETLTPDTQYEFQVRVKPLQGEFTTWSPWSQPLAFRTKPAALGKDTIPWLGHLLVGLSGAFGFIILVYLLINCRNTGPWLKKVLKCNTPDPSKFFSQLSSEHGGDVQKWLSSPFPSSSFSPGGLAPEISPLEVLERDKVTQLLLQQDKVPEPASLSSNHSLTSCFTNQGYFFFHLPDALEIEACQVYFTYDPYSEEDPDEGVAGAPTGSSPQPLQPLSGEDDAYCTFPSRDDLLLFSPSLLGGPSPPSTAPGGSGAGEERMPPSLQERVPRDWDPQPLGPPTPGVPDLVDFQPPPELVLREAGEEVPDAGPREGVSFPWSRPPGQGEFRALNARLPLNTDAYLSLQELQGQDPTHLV
T2 sequence (looked up) 3: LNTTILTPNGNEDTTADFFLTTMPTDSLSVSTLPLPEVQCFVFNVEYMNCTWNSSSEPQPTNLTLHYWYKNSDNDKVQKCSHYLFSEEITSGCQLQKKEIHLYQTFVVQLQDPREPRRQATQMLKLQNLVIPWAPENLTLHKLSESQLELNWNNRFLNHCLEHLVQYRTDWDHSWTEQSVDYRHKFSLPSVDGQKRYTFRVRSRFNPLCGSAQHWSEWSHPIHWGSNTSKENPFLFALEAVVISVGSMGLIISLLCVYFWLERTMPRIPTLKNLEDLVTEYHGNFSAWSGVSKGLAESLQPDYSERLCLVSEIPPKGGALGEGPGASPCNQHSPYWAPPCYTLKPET

T3: his-tagged human IL-2Rα recombinant protein (SinoBiological, Cat #10165-H08H) (human, UniProt P01589 22-213)
T3 construct: Bought protein; also called IL-2Rα (His Tag)
T3 sequence: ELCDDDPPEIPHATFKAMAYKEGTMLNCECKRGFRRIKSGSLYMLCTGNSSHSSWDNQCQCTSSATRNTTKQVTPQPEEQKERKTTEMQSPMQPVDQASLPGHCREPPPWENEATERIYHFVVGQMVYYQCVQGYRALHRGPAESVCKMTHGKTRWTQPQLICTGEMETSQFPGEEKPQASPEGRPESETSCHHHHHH

T4: high-affinity receptor IL-2Rα/β/γ on CTLL2 cells (mouse-derived cell line) (mouse, UniProt P01590 22-268; P16297 27-539; P34902 23-369)
T4 sequence (looked up) 1: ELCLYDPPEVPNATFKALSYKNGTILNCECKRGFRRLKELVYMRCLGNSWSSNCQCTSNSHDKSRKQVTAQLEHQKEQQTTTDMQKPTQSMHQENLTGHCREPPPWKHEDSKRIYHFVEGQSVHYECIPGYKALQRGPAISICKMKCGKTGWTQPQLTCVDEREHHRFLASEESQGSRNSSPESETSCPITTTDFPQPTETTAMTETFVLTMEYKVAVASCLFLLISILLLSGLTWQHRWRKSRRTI
T4 sequence (looked up) 2: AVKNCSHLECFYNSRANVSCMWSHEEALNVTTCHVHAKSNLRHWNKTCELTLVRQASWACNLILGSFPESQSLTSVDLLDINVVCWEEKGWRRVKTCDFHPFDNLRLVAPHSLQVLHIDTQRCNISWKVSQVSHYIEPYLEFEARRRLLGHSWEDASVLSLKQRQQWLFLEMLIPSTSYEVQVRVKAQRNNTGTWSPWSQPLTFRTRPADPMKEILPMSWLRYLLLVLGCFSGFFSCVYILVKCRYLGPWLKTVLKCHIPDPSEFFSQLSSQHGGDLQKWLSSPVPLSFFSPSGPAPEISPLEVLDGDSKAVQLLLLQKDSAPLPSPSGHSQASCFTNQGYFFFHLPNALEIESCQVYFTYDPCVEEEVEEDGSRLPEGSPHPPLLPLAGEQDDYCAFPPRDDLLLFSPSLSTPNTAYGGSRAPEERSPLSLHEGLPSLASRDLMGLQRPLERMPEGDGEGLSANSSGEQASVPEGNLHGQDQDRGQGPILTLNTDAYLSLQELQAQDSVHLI
T4 sequence (looked up) 3: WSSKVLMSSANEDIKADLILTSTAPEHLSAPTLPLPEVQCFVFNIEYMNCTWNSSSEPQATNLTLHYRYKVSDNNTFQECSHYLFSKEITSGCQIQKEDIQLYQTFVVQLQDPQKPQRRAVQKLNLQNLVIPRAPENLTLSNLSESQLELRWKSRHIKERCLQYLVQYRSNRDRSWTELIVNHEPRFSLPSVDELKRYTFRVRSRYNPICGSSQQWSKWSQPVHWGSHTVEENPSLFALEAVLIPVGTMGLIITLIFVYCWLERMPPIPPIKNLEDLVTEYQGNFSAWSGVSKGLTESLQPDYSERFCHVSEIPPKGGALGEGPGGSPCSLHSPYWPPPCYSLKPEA


Tests used:
[1] = molecular target: T5, IL-2Rβ/γ-Fc heterodimer (IL-2Rβ-Fc-hole with IL-2Rγ-Fc-knob); test: SPR (Biacore), IL-2Rβ/γ-Fc captured on Protein A chip
T5 construct: Co-expressed in HEK293 cells and purified with Protein A and Superdex 200
Experimental: The Protein A sensor chip (GE, Cat #29127556) of the Biacore instrument (Biacore T200, GE) was used to capture IL-2Rβ/γ-Fc, wherein IL-2Rβ/γ-Fc was diluted with 1×HBS-EP to 1 μg/mL, and flowed at a flow rate of 10 μL/min for 30 seconds. […] The Biacore instrument (Biacore X100, GE) was used to detect the reaction in real time, to obtain association and dissociation curves. After each cycle of dissociation was completed, the chip was washed and regenerated with 10 mM Gly-HCl pH 1.5.

[2] = molecular target: T1, medium-affinity receptor IL-2Rβ/γ on …; test: cell-based or functional assay
[3] = molecular target: T1, medium-affinity receptor IL-2Rβ/γ on …; test: cell-based or functional assay; remark: listed apart in the source
[4] = molecular target: T2, IL-2 receptor IL-2Rα/β/γ on human …; test: cell-based or functional assay
[5] = molecular target: T1, medium-affinity receptor IL-2Rβ/γ on …; test: cell-based or functional assay; remark: listed apart in the source
[6] = molecular target: T3, his-tagged human IL-2Rα recombinant …; test: BLI (Octet RED96e), His-tagged IL-2Rα on HIS1K sensor
Experimental: The HIS1K biosensor (Fortebio, 18-5120) was immersed into 200 μL buffer (PBS, pH 7.4, 0.02% tween-20, 0.1% BSA) for 10 minutes, for wetting treatment. Then, human IL-2Rα with His tag (SinoBiological, Cat #10165-H08H) was dissolved in PBS pH 7.4, 0.02% tween-20 and 0.1% BSA, and the sensor was placed in 200 μL of such solution. The sensor was placed in 200 μL buffer (PBS pH 7.4, 0.02% tween-20, 0.1% BSA) to wash off the excess IL-2Rα.

[7] = molecular target: T3, his-tagged human IL-2Rα recombinant …; test: BLI (Octet RED96e), His-tagged IL-2Rα on HIS1K sensor; column printed as 'affinity (nM)'
[8] = molecular target: T4, high-affinity receptor IL-2Rα/β/γ on …; test: cell-based or functional assay

| Binder | Kd [1] [nM] | koff [1] [s⁻¹] | kon [1] [M⁻¹ s⁻¹] | EC50 (STAT5 phosphorylation in human NK cells) [2] [nM] | relative activity (STAT5 phosphorylation in human NK cells) [2] [%] | EC50 (STAT5 phosphorylation in human CD8+T cells) [3] [nM] | relative activity (STAT5 phosphorylation in human CD8+T cells) [3] [%] | EC50 (STAT5 phosphorylation in human Treg cells) [4] [nM] | relative biological activity (STAT5 phosphorylation in human Treg cells) [4] [%] | EC50 (Mo7e cell proliferation) [5] [nM] | relative biological activity (Mo7e cell proliferation) [5] [%] | binding result [6] | Kd [7] [nM] | EC50 (CTLL2 cell proliferation) [8] [nM] | relative biological activity (CTLL2 cell proliferation) [8] [%] |
| --- | --- | --- | --- | --- | --- | --- | --- | --- | --- | --- | --- | --- | --- | --- | --- |
| PEGylated IL-2-23 (ligand, mono-PEGylated with 20 kDa mPEG-butyraldehyde (sodium cyanoborohydride); site not stated, also called PEG-IL-2-23) MAPTSSSTKKTCLQLEHLLLDLQMILNGIQSMHIDATLYMPKKATELKHLQCLEEELKPLEEVLNLAQSKNFHLRPRDLISNINVIVLELKGSETTFMCEYADETATIVEFLNRWITFAQSIISTCT | 1.86 | 0.000649 | 350000 | 2.88 | 17 | 14.4 | 16 | 4.24 | 0.01 | 23.4 | 10 | no binding (tested: 133.3 nM) |  |  |  |
| IL-2-24 (N26Q/N29S/N88R) (ligand) MAPTSSSTKKTQLQLEHLLLDLQMILQGISNYKNPKLTRMLTFKFYMPKKATELKHLQCLEEELKPLEEVLNLAQSKNFHLRPRDLISRINVIVLELKGSETTFMCEYADETATIVEFLNRWITFAQSIISTLT |  |  |  |  |  |  |  | 0.209 | 0.2 |  |  |  | 11.8 |  |  |
| PEGylated IL-2-22 (ligand, mono-PEGylated with 20 kDa mPEG-butyraldehyde (sodium cyanoborohydride); site not stated, also called PEG-IL-2-22) MAPTSSSTKKTQLQLEHLLLDLQMILQGISNYKNPKLTRMLTAKFYMPKKATELKHLQCLEEELKPLEEVLQGAQSKNFHLRPRDLISNINVIVLELKGSETTFMCEYADETATIVEFLNRWITFAQSIISTLT | 3.54 | 0.000549 | 155000 |  |  |  |  |  |  | 34.8 | 7 | no binding (tested: 133.3 nM) |  | 39.2 | 0.1 |
| PEGylated IL-2-10 (ligand, mono-PEGylated with 20 kDa mPEG-butyraldehyde (sodium cyanoborohydride); site not stated, also called PEG-IL-2-10) MAPTSSSTKKTQLQLEHLLLDLQMILQGINSYKNPKLTRMLTAKFYMPKKATELKHLQCLEEELKPLEEVLNGAQSKNFHLRPRDLISNINVIVLELKGSETTFMCEYADETATIVEFLNRWITFAQSIISTLT | 0.86 | 0.00119 | 1.38e+06 | 2 | 24 | 8.97 | 26 | 2.65 | 0.02 | 13.2 | 19 | no binding (tested: 133.3 nM) |  | 35.3 | 0.2 |

Reference: patent US20220056094A1 (JIANGSU HENGRUI MEDICINE, published 2022)
